The target of this experiment is growth hormone secretagogue receptor (GHSR) (mouse (endogenous in pancreatic delta cells)) (UniProt Q99P50).
Sequence of UniProt Q99P50 (Q99P50 whole entry, stated change not applied): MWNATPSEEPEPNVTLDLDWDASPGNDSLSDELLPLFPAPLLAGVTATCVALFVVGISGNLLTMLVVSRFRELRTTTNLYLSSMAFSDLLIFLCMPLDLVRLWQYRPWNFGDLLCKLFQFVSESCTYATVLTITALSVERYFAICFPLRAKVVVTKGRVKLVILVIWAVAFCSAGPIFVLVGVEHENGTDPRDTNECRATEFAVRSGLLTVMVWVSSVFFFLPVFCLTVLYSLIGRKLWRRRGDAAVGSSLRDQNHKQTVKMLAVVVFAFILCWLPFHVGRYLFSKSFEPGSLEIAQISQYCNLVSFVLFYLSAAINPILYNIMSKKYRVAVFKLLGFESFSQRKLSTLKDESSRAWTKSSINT

On to Mouse ghrelin (peptide), for which the SST release from perfused mouse pancreas at 12 mmol/l glucose, 1 and 100 nmol/l ghrelin, fold increase stood at 2.7 fold.
